Test results published in patent publication US20170313758A1, “Polypeptides for the Treatment of Angiogenesis or Lymphangiogenesis-Related Diseases” (INSERM (Institut National de la Sante et de la Recherche …, priority 2014, published 2017).

B1: EMMPRIN D136A (receptor)
chain: AAGTVFTTVEDLGSKILLTCSLNDSATEVTGHRWLKGGVVLKEDALPGQKTEFKVDSDDQWGEYSCVFPPEPMGTANIQLHGPPRVKAVKSSEHINEGETAMLVCKSESVPPVTAWAWYKITDSEDKALMNGSESRFFVSSSQGRSELHIENLNMEADPGQYRCNGTSSKGSDQAIITLRVCSHLAALWPFLGIVAEVLVLVTIIFIYEKRRKPEDVLDDDDAGSAPLKSSGQHQNDKGKNVRQRNSS
notes: Full-length EMMPRIN cDNA mutant transfected into BLM-EMMPRIN-miRNA cells; also called control D136A; negative control D136A mutant

Tests used:
[1] = molecular target: T1, EMMPRIN/VEGFR-2 interaction (Homo sapiens, UniProt P35968); assay: Immunoprecipitation of EMMPRIN/VEGFR-2 interaction in treated cells; type: cell-based; conditions: FIG. 15
T1 construct: endogenous in cells; HMEC and M10 are the cells used in the neighbouring peptide experiments
Experimental: For immunoprecipitation, cell lysates were incubated with antibodies against targeted proteins and Protein G-sepharose beads (Sigma). Immunoprecipitated proteins were subjected to sodium dodecyl sulphate-polyacrylamide gel electrophoresis then transferred to Nitrocellulose membranes and probed with anti-EMMPRIN mAb (555961, BD-Pharmingen), anti-VEGF (C-1) mAb (Sc-7269, Santa Cruz), anti-VEGFR-2 rabbit pAb (Sc-504, Santa Cruz-) or anti-pVEGFR-2 (Tyr 1175) rabbit mAb (2478, Cell Signaling). The proteins were visualized with ECL reagent (Pierce), and their expression was normalized relative to total cell lysate protein concentration.
(§1) No effect on ERK phosphorylation could be observed when the cells were treated with PC (FIGS. 15 and 16).

M10 melanoma cells = assay: Modified Boyden chamber invasion assay, M10 melanoma cells; type: cell-based, human; conditions: 500 nM, compared to control PC-treated cells, mean, FIG. 14
Experimental: Human microvascular endothelial (HMEC) cells line derived from dermal microvasculature (T. Lawley, Emory University, Atlanta, GA) were maintained in MCDB-131 medium (Gibco, Invitogen) with 10% fetal bovine serum (FBS) (Invitrogen), 2 ml glutamine (Invitrogen), 10 ng/ml endothelial growth factor (Upstate Biotechnology/Millipore), and 1 μg/ml hydrocortisone (Sigma-Aldrich). Primary melanoma M10 cells, established from patient primary nodular melanoma were maintained in RPMI medium (Gibco, Invitogen) with 10% FBS, Hepes 1 M, pyruvate Nas, and glutamine (Invitrogen). Human breast carcinoma MDA-MB-231 cells were maintained in Dulbecco's modified Eagle's medium (DMEM) (Gibco, Invitogen) with 10% FBS (Invitrogen) and 2m1 glutamine (Invitrogen). Melanoma BLM cells (American Type Culture Collection (ATCC Manassas, Va.)) were maintained in DMEM containing 4.5 g/l glucose, 10% FBS, 100 U/ml penicillin and […] streptomycin. […]
The in vitro migration (on uncoated filters) and invasion (on coated filters with matrigel, BD Bioscience) were performed using a modified Boyden chamber in 24-well plates and […] pore filter inserts (BD Bioscience). After 24h of incubation, cells were fixed, stained with crystal violet 0.5% and counted under a light microscope. […]

ERK phosphorylation = assay: ERK activation signalling (ERK phosphorylation) in treated cells; type: cell-based; conditions: FIG. 16
Experimental: as §1

HMEC endothelial cells = assay: MTT assay, proliferation of HMEC endothelial cells; type: cell-based, human; conditions: treatment for 48 h, FIG. 13
Experimental: Human microvascular endothelial (HMEC) cells line derived from dermal microvasculature (T. Lawley, Emory University, Atlanta, GA) were maintained in MCDB-131 medium (Gibco, Invitogen) with 10% fetal bovine serum (FBS) (Invitrogen), 2 ml glutamine (Invitrogen), 10 ng/ml endothelial growth factor (Upstate Biotechnology/Millipore), and 1 μg/ml hydrocortisone (Sigma-Aldrich). Primary melanoma M10 cells, established from patient primary nodular melanoma were maintained in RPMI medium (Gibco, Invitogen) with 10% FBS, Hepes 1 M, pyruvate Nas, and glutamine (Invitrogen). Human breast carcinoma MDA-MB-231 cells were maintained in Dulbecco's modified Eagle's medium (DMEM) (Gibco, Invitogen) with 10% FBS (Invitrogen) and 2m1 glutamine (Invitrogen). Melanoma BLM cells (American Type Culture Collection (ATCC Manassas, Va.)) were maintained in DMEM containing 4.5 g/l glucose, 10% FBS, 100 U/ml penicillin and […] streptomycin. HEK293T cells (ATCC) were cultured in DMEM medium (Gibco, Invitogen) supplemented with 10% FBS (Invitrogen), 100 U/ml penicillin, […] streptomycin and 2 ml glutamine (Invitrogen).
As VEGFR-2 has been implicated in regulation of endothelial cells migration/invasion and proliferation processes, we first investigated the effect of EMMPRIN inhibitor peptide (PI) on endothelial cell proliferation. […]

VEGFR-2 = molecular target: T2, VEGFR-2 (human, UniProt P35968 20-1356); assay: VEGFR-2 immunoprecipitation, EMMPRIN western blot, transfected BLM-EMMPRIN-miRNA cells
T2 construct: Endogenous receptor of human cells (HMEC, M10, MDA-MB-231, BLM); the whole entry is named; also called KDR
Experimental: For immunoprecipitation, cell lysates were incubated with antibodies against targeted proteins and Protein G-sepharose beads (Sigma). […] The proteins were visualized with ECL reagent (Pierce), and their expression was normalized relative to total cell lysate protein concentration.

T1 sequence (P35968 20-1356): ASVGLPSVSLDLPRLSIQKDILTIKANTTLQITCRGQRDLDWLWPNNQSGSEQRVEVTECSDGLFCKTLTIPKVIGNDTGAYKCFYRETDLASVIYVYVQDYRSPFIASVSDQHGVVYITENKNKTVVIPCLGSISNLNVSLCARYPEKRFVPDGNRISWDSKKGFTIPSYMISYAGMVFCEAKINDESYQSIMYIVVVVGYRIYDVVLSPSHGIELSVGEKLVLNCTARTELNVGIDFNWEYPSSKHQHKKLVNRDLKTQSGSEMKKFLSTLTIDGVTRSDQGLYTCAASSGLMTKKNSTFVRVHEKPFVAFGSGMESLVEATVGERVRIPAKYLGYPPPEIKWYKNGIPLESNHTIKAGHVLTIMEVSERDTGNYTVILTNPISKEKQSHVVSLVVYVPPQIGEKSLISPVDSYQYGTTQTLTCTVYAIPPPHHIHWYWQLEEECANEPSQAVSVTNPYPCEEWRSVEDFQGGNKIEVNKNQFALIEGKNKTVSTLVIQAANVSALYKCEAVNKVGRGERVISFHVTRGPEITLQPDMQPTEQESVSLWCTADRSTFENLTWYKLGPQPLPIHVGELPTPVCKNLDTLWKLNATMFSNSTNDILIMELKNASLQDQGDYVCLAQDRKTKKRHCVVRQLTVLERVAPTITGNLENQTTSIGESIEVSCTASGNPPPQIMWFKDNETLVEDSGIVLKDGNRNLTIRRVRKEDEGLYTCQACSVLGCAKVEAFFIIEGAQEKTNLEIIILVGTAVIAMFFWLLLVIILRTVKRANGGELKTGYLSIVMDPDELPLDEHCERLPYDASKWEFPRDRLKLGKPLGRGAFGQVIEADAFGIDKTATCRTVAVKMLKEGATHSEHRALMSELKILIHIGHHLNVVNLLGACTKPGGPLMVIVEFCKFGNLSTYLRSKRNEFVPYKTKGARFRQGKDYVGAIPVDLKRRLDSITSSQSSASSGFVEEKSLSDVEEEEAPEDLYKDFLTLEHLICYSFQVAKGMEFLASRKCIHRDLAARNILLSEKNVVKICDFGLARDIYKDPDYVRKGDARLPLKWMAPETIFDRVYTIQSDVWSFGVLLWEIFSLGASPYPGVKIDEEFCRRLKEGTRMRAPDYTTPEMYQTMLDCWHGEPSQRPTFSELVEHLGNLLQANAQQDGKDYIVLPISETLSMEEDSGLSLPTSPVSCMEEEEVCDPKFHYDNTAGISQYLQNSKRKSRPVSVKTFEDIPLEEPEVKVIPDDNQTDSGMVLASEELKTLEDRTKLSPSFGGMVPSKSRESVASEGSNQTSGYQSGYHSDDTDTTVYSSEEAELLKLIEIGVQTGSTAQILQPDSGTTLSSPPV
T2 sequence (P35968 20-1356 limits assumed): as the sequence (P35968 20-1356) above

binding result (VEGFR-2)	Molecule	EMMPRIN/VEGFR-2 interaction ([1]; 100 nM)	EMMPRIN/VEGFR-2 interaction ([1]; 500 nM)	decrease in M10 cell invasion capacity (M10 melanoma cells)	ERK phosphorylation (ERK phosphorylation)	inhibition of proliferation of HMEC cells (HMEC endothelial cells)
	PI: EMMPRIN peptide inhibitor (PI); sequence not specified in the text	able to decrease EMMPRIN/VEGFR-2 interaction	able to decrease EMMPRIN/VEGFR-2 interaction	60%	significant decrease	approx. 50%
binds	B1					
